For this series, the target named is T1, SIP2 D1 (Plasmodium falciparum, UniProt C6KSN9 177-235).
T1 sequence: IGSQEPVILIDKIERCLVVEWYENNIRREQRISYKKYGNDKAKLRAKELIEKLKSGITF
Kind of series: gcPBM; about 25 ug protein; PBS, 1% milk, 0.2 mg/ml BSA, salmon testes DNA, 0.03% Triton X-100. As to conditions: tags: N-terminal GST (pGEX-4T-1), kept; label: surface-attached array probe.

B1: GTGCAC_negctrl_site69 (dsDNA)
DNA 1: AACAGATAATATAAAAAAAAAAAAAAAAATAATTAA
DNA 2: TTAATTATTTTTTTTTTTTTTTTTATATTATCTGTT
B1: the binding signal is 6.71 ln median PBM intensity, better of two orientations.

B2: GTGCAC_negctrl_site324 (dsDNA)
DNA 1: ATATGTAAAACTTCAAAAAAATATATTTTATGACGA
DNA 2: TCGTCATAAAATATATTTTTTTGAAGTTTTACATAT
For the molecule B2, the binding signal was 6.82 ln median PBM intensity, better of two orientations.

B3: GTGCAC_negctrl_site407 (dsDNA)
DNA 1: AATGGAAAAAAAAAAATAAATACAAATAAATACAAA
DNA 2: TTTGTATTTATTTGTATTTATTTTTTTTTTTCCATT
With B3, the binding signal was 6.81 ln median PBM intensity, better of two orientations.

B4: GTGCAC_negctrl_site233 (dsDNA)
DNA 1: TAAACCTTAAAATATTTCTCATGTTTAACTTATATT
DNA 2: AATATAAGTTAAACATGAGAAATATTTTAAGGTTTA
In the case of B4, the binding signal is 6.73 ln median PBM intensity, better of two orientations.

B5: GTGCAC_negctrl_site51 (dsDNA)
DNA 1: ATAAAAAATTTAAGTATTTTTTACAAACCTATAAAT
DNA 2: ATTTATAGGTTTGTAAAAAATACTTAAATTTTTTAT
Take B5: the binding signal was 6.78 ln median PBM intensity, better of two orientations.

B6: GTGCAC_negctrl_site693 (dsDNA)
DNA 1: TGGACCAAACGACAAAAAAAAAGCAGAAAACAAAAA
DNA 2: TTTTTGTTTTCTGCTTTTTTTTTGTCGTTTGGTCCA
With B6, the binding signal was 6.81 ln median PBM intensity, better of two orientations.

B7: GTGCAC_negctrl_site60 (dsDNA)
DNA 1: AACACAATAAAAATTAAAAATGTTAAGTAAATATAA
DNA 2: TTATATTTACTTAACATTTTTAATTTTTATTGTGTT
For B7, the binding signal was 6.71 ln median PBM intensity, better of two orientations.

B8: GTGCAC_negctrl_site133 (dsDNA)
DNA 1: TCTTTTACAAAAGCTATAACATTCACCACATTATAA
DNA 2: TTATAATGTGGTGAATGTTATAGCTTTTGTAAAAGA
For the molecule B8, the binding signal was 6.79 ln median PBM intensity, better of two orientations.

B9: GTGCAC_negctrl_site320 (dsDNA)
DNA 1: TTTTCTAAAATATTCATAATAAATCAAAAAAAAAAA
DNA 2: TTTTTTTTTTTGATTTATTATGAATATTTTAGAAAA
Consider B9, for which the binding signal is 6.79 ln median PBM intensity, better of two orientations.

B10: GTGCAC_negctrl_site618 (dsDNA)
DNA 1: AAAAAAATTACATATCCATTTTAACATAATAAATAG
DNA 2: CTATTTATTATGTTAAAATGGATATGTAATTTTTTT
As for B10, the binding signal was 6.84 ln median PBM intensity, better of two orientations.

B11: GTGCAC_negctrl_site250 (dsDNA)
DNA 1: TTTTTTTTTTTATATACTGGAAATATATTTAATTTA
DNA 2: TAAATTAAATATATTTCCAGTATATAAAAAAAAAAA
For B11, the binding signal was 6.78 ln median PBM intensity, better of two orientations.

B12: GTGCAC_negctrl_site149 (dsDNA)
DNA 1: GCAAAATATTTAAAATAATATATGTGTATATTTTTA
DNA 2: TAAAAATATACACATATATTATTTTAAATATTTTGC
For B12, the binding signal is 6.73 ln median PBM intensity, better of two orientations.

B13: GTGCAC_negctrl_site363 (dsDNA)
DNA 1: ATTAGAGAATCGTAACCCAAATGAACATACTTAAAT
DNA 2: ATTTAAGTATGTTCATTTGGGTTACGATTCTCTAAT
Take B13: the binding signal was 6.72 ln median PBM intensity, better of two orientations.

B14: GTGCAC_negctrl_site515 (dsDNA)
DNA 1: GATATGATGAGATTGATATTCATAAGAGGATTAATG
DNA 2: CATTAATCCTCTTATGAATATCAATCTCATCATATC
In the case of B14, the binding signal is 6.75 ln median PBM intensity, better of two orientations.

B15: GTGCAC_negctrl_site547 (dsDNA)
DNA 1: TTTTACAATAATAAGTAGATCTAAATAAAGATTTAA
DNA 2: TTAAATCTTTATTTAGATCTACTTATTATTGTAAAA
In the case of B15, the binding signal is 6.73 ln median PBM intensity, better of two orientations.

B16: GTGCAC_negctrl_site12 (dsDNA)
DNA 1: AATAAAAAAATAAAAAAAAAAAAAAATAAAAAAAAA
DNA 2: TTTTTTTTTATTTTTTTTTTTTTTTATTTTTTTATT
For B16, the binding signal is 6.76 ln median PBM intensity, better of two orientations.

B17: GTGCAC_negctrl_site187 (dsDNA)
DNA 1: AGGAAACAAGAAATGAAGAATCATGTAGAAGGCCCA
DNA 2: TGGGCCTTCTACATGATTCTTCATTTCTTGTTTCCT
In the case of B17, the binding signal is 6.71 ln median PBM intensity, better of two orientations.

B18: GTGCAC_negctrl_site288 (dsDNA)
DNA 1: TATTATTCATAATTTATCTTTTAAATTAAATCACAA
DNA 2: TTGTGATTTAATTTAAAAGATAAATTATGAATAATA
For B18, the binding signal is 6.81 ln median PBM intensity, better of two orientations.

B19: GTGCAC_negctrl_site444 (dsDNA)
DNA 1: TTTTTCACATCTATAAATCATCTAATCAATATTTTT
DNA 2: AAAAATATTGATTAGATGATTTATAGATGTGAAAAA
With B19, the binding signal is 6.76 ln median PBM intensity, better of two orientations.

B20: GTGCAC_negctrl_site686 (dsDNA)
DNA 1: TCTTATATGATATTTATTTATTTATTTATTTATTCA
DNA 2: TGAATAAATAAATAAATAAATAAATATCATATAAGA
For the molecule B20, the binding signal was 6.77 ln median PBM intensity, better of two orientations.

B21: GTGCAC_negctrl_site477 (dsDNA)
DNA 1: AAAAAAAATTTTCTTCTGTTGTATTTTTTATACGTT
DNA 2: AACGTATAAAAAATACAACAGAAGAAAATTTTTTTT
For B21, the binding signal was 6.77 ln median PBM intensity, better of two orientations.

B22: GTGCAC_negctrl_site96 (dsDNA)
DNA 1: ATTTTTTTATAAAATTTTTATATAATTTATTATAAA
DNA 2: TTTATAATAAATTATATAAAAATTTTATAAAAAAAT
Regarding B22, the binding signal is 6.82 ln median PBM intensity, better of two orientations.

B23: GTGCAC_negctrl_site299 (dsDNA)
DNA 1: AGAGAAAGAAGGGAGAAAAAATAAAATAAAATAAAA
DNA 2: TTTTATTTTATTTTATTTTTTCTCCCTTCTTTCTCT
With B23, the binding signal was 6.83 ln median PBM intensity, better of two orientations.

B24: GTGCAC_negctrl_site169 (dsDNA)
DNA 1: ATAAGAAGGAACATAAATATATCATAAAAAAAAAAA
DNA 2: TTTTTTTTTTTATGATATATTTATGTTCCTTCTTAT
On to B24, for which the binding signal is 6.73 ln median PBM intensity, better of two orientations.

B25: GTGCAC_negctrl_site537 (dsDNA)
DNA 1: TGGTAACAGCATAGAAAATGGACAAACGAAATATAA
DNA 2: TTATATTTCGTTTGTCCATTTTCTATGCTGTTACCA
With B25, the binding signal was 6.79 ln median PBM intensity, better of two orientations.

B26: GTGCAC_negctrl_site46 (dsDNA)
DNA 1: TTGTAGGAATTTATTTTGACTGATAATTAATACGTT
DNA 2: AACGTATTAATTATCAGTCAAAATAAATTCCTACAA
On to B26, for which the binding signal was 6.8 ln median PBM intensity, better of two orientations.

B27: GTGCAC_negctrl_site383 (dsDNA)
DNA 1: TTTTGTTTTGTTTTGTTTTGTTTTGTTTTATTTTAT
DNA 2: ATAAAATAAAACAAAACAAAACAAAACAAAACAAAA
B27: the binding signal was 6.74 ln median PBM intensity, better of two orientations.

B28: GTGCAC_negctrl_site585 (dsDNA)
DNA 1: TTTTGATAGAAGTGTTCTAGGAATTCAACTGTAATA
DNA 2: TATTACAGTTGAATTCCTAGAACACTTCTATCAAAA
For the molecule B28, the binding signal is 6.81 ln median PBM intensity, better of two orientations.

B29: GTGCAC_negctrl_site559 (dsDNA)
DNA 1: TTTTTTATTGTGAAACTGATATTATATTTTTTATAA
DNA 2: TTATAAAAAATATAATATCAGTTTCACAATAAAAAA
As for B29, the binding signal is 6.71 ln median PBM intensity, better of two orientations.

B30: GTGCAC_negctrl_site130 (dsDNA)
DNA 1: TTGTATTAATAATTTTTTATATTATAGTTTATAATA
DNA 2: TATTATAAACTATAATATAAAAAATTATTAATACAA
For B30, the binding signal is 6.82 ln median PBM intensity, better of two orientations.
